{
  "source": "patent US20230382979A1",
  "about": "(ADAPTIVE BIOTECHNOLOGIES, published 2023)",
  "binders": {"B1": {"name": "antibody 1589 (antibody, V domains shown)", "VH": "EVQLVESGGGLIQVGGSLRLSCAASGLTVTSNYMNWVRQGPGKGLEWVSLIYSGGTTYYADSVKGRFTISRDDSKNTLYLQMNSLRAEDTAVYYCARPIVGARSGMDVWGQGTAVTVSS", "VL": "DIQMTQSPSSLSASVGDRVTITCQASQDINKYLNWYQQKPGKAPKLLIYDASNLETGVPSRFSGSGSGTDFTFTISSLQPEDLATYYCHQFDNLPGTFGGGTKVEIK"}, "B2": {"name": "antibody 2793 (antibody, V domains shown)", "VH": "QVQLVQSGAEVKKPGASVKVSCKVSGFTLPELSIHWVRQAPGKGLEWMGGFDPEDAKTIYAQKFQGRVTMTEDTSTDIAYMELNSLRSDDTAVYYCATGSPFGVVGNWLDPWGQGTLVTVSS", "VL": "QSALTQPASVSGSPGQSITISCTGTSSDVGDFSYVSWYQQHPGKAPKLMIYEVTKRPSGVSNRFSGSKSGNTASLTISGLQTEDEADYYCTSYTSSRLVLFGGGTKLTVL"}, "B3": {"name": "antibody 2432 (antibody, V domains shown)", "VH": "QVQLVQSGAEVKKPGSSVKVSCKASGDTFSSYAISWVRQAPGQGLEWLGGIIPIFGSADYAQKFQGRVTITADEFTSTAYMELSSLRSEDTAVYFCAREKYGDYGEGPLYNFDYWGQGTLVTVSS", "VL": "not shown"}, "B4": {"name": "antibody 1439 (antibody, V domains shown)", "VH": "QVQLQESGPGLVKPSETLSLTCTVSGDSISTYYWSWIRQPPGKGLEWIGYIHYSGSTNYNPSLKSRVAVSVDTSKNQFSLKLSSVTAADTAVYYCARGGGVFGVVINFDYWGQGILVTVSS", "VL": "NFMLTQPYSVSESPGKTVTISCTRSSGSIASNYVQWYQQRPGSAPTTVIYEDNQRPSGVPDRFSGSIDSSSNSASLTISGLKTEDEADYYCQSRDSSNPVVFGGGTKLTVL"}, "B5": {"name": "antibody 2606 (antibody, V domains shown)", "VH": "EVQLVESGGGLVKPGGSLRLSCAASGFTFSSYSMNWVRQAPGKGLEWVSSITSSSGYMYYADSVKGRFTISRDNAKNSLYLQLNSLRAEDTAVYYCAKDSAFDLWEVRSYYYVMDVWGQGTTVTVSS", "VL": "not shown"}, "B6": {"name": "antibody 1959 (antibody, V domains shown)", "VH": "QVQLVQSGTEVKKPGSSVRVSCQASGDTFTSHAIIWIRQAPGQGLEYLGRIIPVLDITNAAQRFLGRLTLTADKSTTTAYMELSSLRSEDTAVYYCARAPFGLIVMYDHWGQGTLVTVTA", "VL": "EIVLTQSPGTLSLSPGERATLSCRASQSVSGNFLAWYQQKPGQAPRLLIHETSKRATGIPDRVSGGGSGTDFTLTISRLEPEDFAVYHCQQYGTTAVTFGQGTRLDMK"}, "B7": {"name": "antibody 1915 (antibody, V domains shown)", "VH": "QVQLVESGGGVVQPGRSLRLSCAASGFTFSSYAMHWVRQAPGKGLEWVAVISYDGSNKYYADSVKGRFTISRDNSKNTLYLQMDSLRAQDTAVYYCATPRDMFSSGWSSPFDYWGQGTLVTVSS", "VL": "DIQMTQSPSSLSASVGDRVTITCQASQDISIYLTWYQQKPGKAPKLLIYGASNLEVEVPSRFSGSGSGTEFTLTISSLQPEDFATYFCQHSDDLPVTFGGGTKVEVK"}},
  "key": {"MERS-COV (S1+S2)": {"molecular_target": "T1, MERS-COV (S1+S2)", "T1 chain": "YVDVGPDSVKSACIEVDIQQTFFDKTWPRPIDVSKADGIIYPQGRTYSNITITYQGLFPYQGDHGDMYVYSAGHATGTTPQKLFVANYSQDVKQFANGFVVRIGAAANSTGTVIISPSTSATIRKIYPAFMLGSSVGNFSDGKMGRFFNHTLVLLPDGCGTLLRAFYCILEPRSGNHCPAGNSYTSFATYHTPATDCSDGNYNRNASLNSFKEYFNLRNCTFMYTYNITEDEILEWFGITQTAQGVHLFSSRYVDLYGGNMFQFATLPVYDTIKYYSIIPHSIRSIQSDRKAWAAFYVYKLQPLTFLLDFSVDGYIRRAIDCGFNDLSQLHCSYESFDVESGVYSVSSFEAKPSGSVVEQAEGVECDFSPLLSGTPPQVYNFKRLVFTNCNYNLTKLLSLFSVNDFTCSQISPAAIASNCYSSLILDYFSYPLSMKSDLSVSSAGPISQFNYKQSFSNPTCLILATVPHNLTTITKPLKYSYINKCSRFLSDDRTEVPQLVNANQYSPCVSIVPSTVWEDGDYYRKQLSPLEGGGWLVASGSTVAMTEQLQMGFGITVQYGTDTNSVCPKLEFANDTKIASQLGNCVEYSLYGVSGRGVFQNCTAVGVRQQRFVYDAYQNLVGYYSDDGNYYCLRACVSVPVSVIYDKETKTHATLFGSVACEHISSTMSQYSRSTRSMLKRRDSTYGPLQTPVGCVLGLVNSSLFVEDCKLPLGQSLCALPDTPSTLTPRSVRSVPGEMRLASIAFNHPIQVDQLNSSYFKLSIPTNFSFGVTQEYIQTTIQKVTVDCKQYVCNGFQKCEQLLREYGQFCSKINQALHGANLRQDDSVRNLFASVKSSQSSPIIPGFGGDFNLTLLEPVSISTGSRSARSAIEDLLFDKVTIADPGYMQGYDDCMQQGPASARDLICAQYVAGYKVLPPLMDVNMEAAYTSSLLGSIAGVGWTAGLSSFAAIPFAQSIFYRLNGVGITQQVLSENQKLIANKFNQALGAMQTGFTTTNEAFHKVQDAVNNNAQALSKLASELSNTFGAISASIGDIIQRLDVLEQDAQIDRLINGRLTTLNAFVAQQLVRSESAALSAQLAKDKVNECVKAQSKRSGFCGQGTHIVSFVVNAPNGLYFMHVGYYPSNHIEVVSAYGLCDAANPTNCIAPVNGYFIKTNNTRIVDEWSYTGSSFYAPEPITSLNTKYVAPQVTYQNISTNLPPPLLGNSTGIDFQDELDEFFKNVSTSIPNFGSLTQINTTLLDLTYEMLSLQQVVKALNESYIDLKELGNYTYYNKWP", "assay": "dose-response ELISA on coated spike antigen"}, "MERS-COV (S2)": {"molecular_target": "T2, MERS-COV (S2)", "T2 chain": "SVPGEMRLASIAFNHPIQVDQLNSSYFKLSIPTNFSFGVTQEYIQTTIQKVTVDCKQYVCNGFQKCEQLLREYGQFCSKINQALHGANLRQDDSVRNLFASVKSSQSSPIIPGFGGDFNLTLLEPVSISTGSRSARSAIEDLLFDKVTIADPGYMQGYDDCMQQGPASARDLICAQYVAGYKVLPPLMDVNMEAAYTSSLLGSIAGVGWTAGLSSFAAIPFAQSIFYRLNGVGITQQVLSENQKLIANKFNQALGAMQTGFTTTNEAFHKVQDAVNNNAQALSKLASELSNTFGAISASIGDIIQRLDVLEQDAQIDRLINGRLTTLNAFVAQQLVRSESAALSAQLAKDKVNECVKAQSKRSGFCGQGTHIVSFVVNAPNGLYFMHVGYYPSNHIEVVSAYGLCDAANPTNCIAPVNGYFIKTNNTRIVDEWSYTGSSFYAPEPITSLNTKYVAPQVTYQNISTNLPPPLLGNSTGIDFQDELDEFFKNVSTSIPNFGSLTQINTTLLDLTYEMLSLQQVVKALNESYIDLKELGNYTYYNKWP", "assay": "dose-response ELISA on coated spike antigen"}, "[1]": {"molecular_target": "SARS-CoV-2 spike protein, WA1/2020, borne on lentiviral pseudovirus (SARS-CoV-2, WA01/2020 strain, UniProt P0DTC2 14-1273)", "assay": "cell-based or functional assay"}, "[2]": {"molecular_target": "T3, S2 subunit of the SARS-CoV-2 spike protein, WA01/2020 strain (SARS-CoV-2, WA01/2020 strain, UniProt P0DTC2 686-1213)", "assay": "ELISA, antibody at 0.1 ug/mL"}, "[3]": {"molecular_target": "T4, SARS-CoV-2 nucleocapsid (N) protein (SARS-CoV-2, UniProt P0DTC9 1-419)", "assay": "ELISA, antibody at 0.1 ug/mL"}, "[4]": {"molecular_target": "T3, S2 subunit of the SARS-CoV-2 spike …", "assay": "dose-response ELISA on coated spike antigen"}, "[5]": {"molecular_target": "T5, S1 subunit of the SARS-CoV-2 spike protein, WA01/2020 strain (SARS-CoV-2, WA01/2020 strain, UniProt P0DTC2 16-685)", "assay": "dose-response ELISA on coated antigen"}, "[6]": {"molecular_target": "T6, SARS-CoV-2 spike (S) protein trimer, WA01/2020 strain (SARS-CoV-2, WA01/2020 strain, UniProt P0DTC2 16-1213)", "assay": "dose-response ELISA on coated antigen"}, "[7]": {"molecular_target": "T4, SARS-CoV-2 nucleocapsid (N) protein", "assay": "ELISA, antibody at 0.1 ug/mL", "remark": "listed apart in the source"}, "[8]": {"molecular_target": "T5, S1 subunit of the SARS-CoV-2 spike …"}, "[9]": {"molecular_target": "T6, SARS-CoV-2 spike (S) protein trimer, …"}, "[10]": {"molecular_target": "T5, S1 subunit of the SARS-CoV-2 spike …", "assay": "dose-response ELISA"}, "[11]": {"molecular_target": "T6, SARS-CoV-2 spike (S) protein trimer, …", "assay": "dose-response ELISA on coated spike antigen"}, "[12]": {"molecular_target": "SARS-CoV (2003) spike protein borne on lentiviral pseudovirus (SARS-CoV (2003), UniProt P59594 14-1255)", "assay": "cell-based or functional assay"}, "[13]": {"molecular_target": "T3, S2 subunit of the SARS-CoV-2 spike …", "assay": "ELISA screening, antibody concentration not given"}, "[14]": {"molecular_target": "T5, S1 subunit of the SARS-CoV-2 spike …", "assay": "ELISA screening, antibody concentration not given"}, "[15]": {"molecular_target": "T4, SARS-CoV-2 nucleocapsid (N) protein", "assay": "ELISA screening, antibody concentration not given"}, "[16]": {"molecular_target": "T6, SARS-CoV-2 spike (S) protein trimer, …", "assay": "ELISA screening, antibody concentration not given"}},
  "data": [
    {"binder": "B1", "values": [
      {"measurement": "binding result", "setting": "MERS-COV (S1+S2)", "value": "no binding (tested: 10000 ng/ml)"},
      {"measurement": "binding result", "setting": "MERS-COV (S2)", "value": "no binding (tested: 10000 ng/ml)"},
      {"measurement": "Pseudo Neut, WA1/2020 IC50 (pM)", "setting": "[1]", "value": 1170, "unit": "pM"},
      {"measurement": "binding result", "setting": "[2]", "value": "no binding (tested: 0.1 ug/mL)"},
      {"measurement": "binding result", "setting": "[3]", "value": "no binding (tested: 0.1 ug/mL)"}
    ]},
    {"binder": "B2", "values": [
      {"measurement": "binding result", "setting": "MERS-COV (S1+S2)", "value": "no binding (tested: 10000 ng/ml)"},
      {"measurement": "binding result", "setting": "[4]", "value": "no binding (tested: 10000 ng/ml)"},
      {"measurement": "binding result", "setting": "MERS-COV (S2)", "value": "no binding (tested: 10000 ng/ml)"},
      {"measurement": "EC50", "setting": "[5]", "value": 0.113, "unit": "nM"},
      {"measurement": "EC50", "setting": "[6]", "value": 0.068, "unit": "nM"},
      {"measurement": "binding result", "setting": "[7]", "value": "no binding (tested: 0.1 ug/mL)"},
      {"measurement": "Kd", "setting": "[8]", "value": 0.398, "unit": "nM"}
    ]},
    {"binder": "B3", "values": [
      {"measurement": "EC50", "setting": "[6]", "value": 0.024, "unit": "nM"},
      {"measurement": "Kd", "setting": "[9]", "value": 0.243, "unit": "nM"},
      {"measurement": "binding result", "setting": "[10]", "value": "no binding"}
    ]},
    {"binder": "B4", "values": [
      {"measurement": "binding result", "setting": "MERS-COV (S1+S2)", "value": "no binding (tested: 10000 ng/ml)"},
      {"measurement": "binding result", "setting": "MERS-COV (S2)", "value": "no binding (tested: 10000 ng/ml)"},
      {"measurement": "EC50 (read off the curve)", "setting": "[11]", "value": "~0.1", "unit": "µg/mL"},
      {"measurement": "Pseudo Neut, SARS-CoV 2003 IC50", "setting": "[12]", "value": 29, "unit": "nM"},
      {"measurement": "Pseudo Neut, WA1/2020 IC50 (pM)", "setting": "[1]", "value": 30200, "unit": "pM"}
    ]},
    {"binder": "B5", "values": [
      {"measurement": "EC50", "setting": "[6]", "value": 0.057, "unit": "nM"},
      {"measurement": "Kd", "setting": "[9]", "value": 0.00787, "unit": "nM"},
      {"measurement": "binding result", "setting": "[10]", "value": "no binding"}
    ]},
    {"binder": "B6", "values": [
      {"measurement": "binding result", "setting": "[13]", "value": "no binding (tested: not printed)"},
      {"measurement": "binding result", "setting": "[14]", "value": "no binding (tested: not printed)"},
      {"measurement": "binding result", "setting": "[15]", "value": "no binding (tested: not printed)"},
      {"measurement": "binding result", "setting": "[16]", "value": "no binding (tested: not printed)"}
    ]},
    {"binder": "B7", "values": [
      {"measurement": "binding result", "setting": "[13]", "value": "no binding (tested: not printed)"},
      {"measurement": "binding result", "setting": "[14]", "value": "no binding (tested: not printed)"},
      {"measurement": "binding result", "setting": "[15]", "value": "no binding (tested: not printed)"},
      {"measurement": "binding result", "setting": "[16]", "value": "no binding (tested: not printed)"}
    ]}
  ]
}
